Each block holds one binder with its values, some of them ahead of it.
Columns and labels:
[1] = molecular target: T1, Egf like and emi domain containing 1, pseudogene (human, UniProt Q0D2K5 1-195)
T1 construct: HuProt array protein; pseudogene product; also called EGFEM1P
T1 sequence: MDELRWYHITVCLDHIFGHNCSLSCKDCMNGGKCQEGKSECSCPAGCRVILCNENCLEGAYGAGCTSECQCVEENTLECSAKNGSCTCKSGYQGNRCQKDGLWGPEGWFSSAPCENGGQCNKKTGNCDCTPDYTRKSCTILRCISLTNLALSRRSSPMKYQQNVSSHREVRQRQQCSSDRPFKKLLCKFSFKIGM

[2] = molecular target: T2, PNMA family member 5, transcript variant 2 (human, UniProt Q96PV4 1-448)
T2 construct: HuProt array protein, full-length recombinant from yeast; also called PNMA5

[3] = molecular target: T3, phospholipase C delta 1, transcript variant 2 (human, UniProt P51178 1-756)
T3 construct: HuProt array protein, full-length recombinant from yeast; also called PLCD1
T3 sequence: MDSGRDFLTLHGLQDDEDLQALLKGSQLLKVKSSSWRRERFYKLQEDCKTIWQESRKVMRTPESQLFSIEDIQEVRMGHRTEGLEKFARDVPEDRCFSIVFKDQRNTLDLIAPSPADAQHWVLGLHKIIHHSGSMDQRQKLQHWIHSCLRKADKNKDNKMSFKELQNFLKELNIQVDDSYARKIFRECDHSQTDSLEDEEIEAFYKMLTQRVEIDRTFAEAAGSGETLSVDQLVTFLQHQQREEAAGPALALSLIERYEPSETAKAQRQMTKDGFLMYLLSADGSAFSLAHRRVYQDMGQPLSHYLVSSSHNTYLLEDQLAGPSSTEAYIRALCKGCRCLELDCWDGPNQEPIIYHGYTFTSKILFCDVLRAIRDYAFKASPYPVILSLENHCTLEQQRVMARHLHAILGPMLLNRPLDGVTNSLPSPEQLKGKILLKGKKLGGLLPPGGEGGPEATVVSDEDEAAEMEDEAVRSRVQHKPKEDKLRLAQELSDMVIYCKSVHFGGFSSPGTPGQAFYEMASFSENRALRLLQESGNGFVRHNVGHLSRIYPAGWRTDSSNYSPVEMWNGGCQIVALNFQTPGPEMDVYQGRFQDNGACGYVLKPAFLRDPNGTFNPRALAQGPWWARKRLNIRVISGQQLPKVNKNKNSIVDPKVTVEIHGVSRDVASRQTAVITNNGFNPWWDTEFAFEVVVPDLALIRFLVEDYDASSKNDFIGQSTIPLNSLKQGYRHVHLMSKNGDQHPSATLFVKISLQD

[4] = molecular target: T4, zinc finger protein 326, transcript variant 1 (human, UniProt Q5BKZ1 1-582)
T4 construct: HuProt array protein, full-length recombinant from yeast; also called ZNF326
T4 sequence: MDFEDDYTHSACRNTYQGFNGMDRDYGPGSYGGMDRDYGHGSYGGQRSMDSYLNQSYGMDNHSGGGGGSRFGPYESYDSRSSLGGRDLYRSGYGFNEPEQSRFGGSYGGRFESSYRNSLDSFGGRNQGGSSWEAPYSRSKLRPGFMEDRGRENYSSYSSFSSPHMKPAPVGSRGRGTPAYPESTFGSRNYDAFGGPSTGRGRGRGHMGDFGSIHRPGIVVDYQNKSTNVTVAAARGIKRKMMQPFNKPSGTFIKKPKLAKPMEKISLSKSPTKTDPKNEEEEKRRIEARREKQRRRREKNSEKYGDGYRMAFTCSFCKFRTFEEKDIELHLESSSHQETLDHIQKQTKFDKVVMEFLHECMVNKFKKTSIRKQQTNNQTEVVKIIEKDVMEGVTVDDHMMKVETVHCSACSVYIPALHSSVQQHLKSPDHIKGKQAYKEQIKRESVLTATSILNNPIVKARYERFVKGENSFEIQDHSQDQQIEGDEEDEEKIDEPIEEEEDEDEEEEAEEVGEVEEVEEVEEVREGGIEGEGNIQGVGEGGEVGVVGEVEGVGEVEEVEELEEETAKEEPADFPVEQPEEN

zinc finger protein 8 = molecular target: T5, zinc finger protein 8 (human, UniProt P17098 1-575); experiment: protein array
T5 construct: on protein array; also called ZNF8

[5] = molecular target: T6, SATB homeobox 2, transcript variant 2 (human, UniProt Q9UPW6 1-733); experiment: protein array
T6 construct: on protein array; also called SATB2
T6 sequence: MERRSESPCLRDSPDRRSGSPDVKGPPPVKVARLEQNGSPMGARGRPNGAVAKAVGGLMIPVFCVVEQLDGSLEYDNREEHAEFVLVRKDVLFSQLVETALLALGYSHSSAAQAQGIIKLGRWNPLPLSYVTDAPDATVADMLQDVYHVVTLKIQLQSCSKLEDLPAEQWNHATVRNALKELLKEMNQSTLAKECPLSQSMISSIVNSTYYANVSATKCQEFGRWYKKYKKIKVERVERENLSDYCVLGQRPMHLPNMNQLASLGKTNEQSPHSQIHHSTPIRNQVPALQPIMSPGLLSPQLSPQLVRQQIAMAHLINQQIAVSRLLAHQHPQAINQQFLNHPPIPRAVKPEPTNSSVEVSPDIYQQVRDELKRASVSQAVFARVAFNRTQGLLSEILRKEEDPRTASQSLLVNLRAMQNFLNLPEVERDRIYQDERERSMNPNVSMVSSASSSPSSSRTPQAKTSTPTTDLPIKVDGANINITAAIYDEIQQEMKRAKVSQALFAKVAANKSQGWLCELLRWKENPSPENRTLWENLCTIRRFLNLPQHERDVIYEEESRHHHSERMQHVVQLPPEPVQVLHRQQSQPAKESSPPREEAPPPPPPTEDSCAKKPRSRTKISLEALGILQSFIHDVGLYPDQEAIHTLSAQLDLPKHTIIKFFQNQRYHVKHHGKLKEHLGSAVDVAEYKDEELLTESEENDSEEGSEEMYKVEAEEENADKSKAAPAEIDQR

[6] = molecular target: T7, ganglioside induced differentiation associated protein 1, transcript variant 2 (human, UniProt Q8TB36 69-358); experiment: protein array
T7 construct: on protein array; also called GDAP1
T7 sequence: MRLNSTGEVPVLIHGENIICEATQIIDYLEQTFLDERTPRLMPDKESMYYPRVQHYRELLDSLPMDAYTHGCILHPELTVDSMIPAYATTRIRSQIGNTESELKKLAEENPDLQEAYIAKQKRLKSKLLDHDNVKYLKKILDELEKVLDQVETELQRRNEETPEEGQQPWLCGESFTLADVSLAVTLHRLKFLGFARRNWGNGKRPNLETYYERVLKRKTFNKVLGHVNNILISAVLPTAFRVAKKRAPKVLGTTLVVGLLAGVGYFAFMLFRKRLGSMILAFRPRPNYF

[7] = molecular target: T8, nudE neurodevelopment protein 1, transcript variant 1 (human, UniProt Q9NXR1 1-335)
T8 construct: HuProt array protein, full-length recombinant from yeast; also called NDE1
T8 sequence: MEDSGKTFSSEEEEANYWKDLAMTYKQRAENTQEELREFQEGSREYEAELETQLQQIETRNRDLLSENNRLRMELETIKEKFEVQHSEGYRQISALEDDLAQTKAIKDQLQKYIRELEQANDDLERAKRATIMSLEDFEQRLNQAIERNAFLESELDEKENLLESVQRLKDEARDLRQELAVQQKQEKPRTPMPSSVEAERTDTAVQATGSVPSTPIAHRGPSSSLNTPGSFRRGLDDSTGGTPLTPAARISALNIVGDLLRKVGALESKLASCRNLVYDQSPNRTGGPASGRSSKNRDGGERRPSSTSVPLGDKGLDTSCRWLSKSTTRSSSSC

LN608403.1_frag = molecular target: T9, LN608403.1_frag (human)
T9 construct: HuProt array protein; labelled _frag
T9 chain: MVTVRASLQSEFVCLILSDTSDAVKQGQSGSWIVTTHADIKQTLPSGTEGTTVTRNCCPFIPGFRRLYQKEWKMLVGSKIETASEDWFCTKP

[8] = molecular target: T10, JPX transcript, XIST activator (human)
T10 construct: HuProt array protein; labelled _frag
T10 chain: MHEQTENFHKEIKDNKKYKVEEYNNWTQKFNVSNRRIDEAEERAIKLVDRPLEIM

[9] = molecular target: T11, nucleosome assembly protein 1 like 1, transcript variant 1 (human, UniProt P55209 2-388)
T11 construct: HuProt array protein, full-length recombinant from yeast; also called NAP1L1
T11 sequence: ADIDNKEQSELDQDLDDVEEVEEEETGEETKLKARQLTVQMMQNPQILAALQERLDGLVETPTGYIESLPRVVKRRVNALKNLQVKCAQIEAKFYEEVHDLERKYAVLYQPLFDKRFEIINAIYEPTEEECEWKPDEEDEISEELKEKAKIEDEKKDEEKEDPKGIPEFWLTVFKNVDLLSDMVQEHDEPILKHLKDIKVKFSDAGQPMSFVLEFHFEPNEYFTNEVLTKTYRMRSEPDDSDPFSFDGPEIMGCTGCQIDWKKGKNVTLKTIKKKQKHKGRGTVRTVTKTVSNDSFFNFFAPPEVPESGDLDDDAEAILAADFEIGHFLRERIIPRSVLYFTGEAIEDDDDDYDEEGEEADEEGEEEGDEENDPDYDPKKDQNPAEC

T2 sequence (Q96PV4 other isoform, or with tags, fused parts or gaps mutant limits assumed): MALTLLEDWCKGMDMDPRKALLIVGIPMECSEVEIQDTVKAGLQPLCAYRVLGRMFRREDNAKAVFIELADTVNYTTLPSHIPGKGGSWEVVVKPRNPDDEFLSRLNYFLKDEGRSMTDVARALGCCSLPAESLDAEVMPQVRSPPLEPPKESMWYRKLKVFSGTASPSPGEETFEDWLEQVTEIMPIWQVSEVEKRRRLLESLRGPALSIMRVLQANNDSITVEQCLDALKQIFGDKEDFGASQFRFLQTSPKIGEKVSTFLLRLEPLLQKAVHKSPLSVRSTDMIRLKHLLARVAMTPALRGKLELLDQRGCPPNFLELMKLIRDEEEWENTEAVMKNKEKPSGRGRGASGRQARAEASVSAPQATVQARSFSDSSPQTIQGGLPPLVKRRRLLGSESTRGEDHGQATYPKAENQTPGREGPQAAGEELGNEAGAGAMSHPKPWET
T5 sequence (P17098 whole entry): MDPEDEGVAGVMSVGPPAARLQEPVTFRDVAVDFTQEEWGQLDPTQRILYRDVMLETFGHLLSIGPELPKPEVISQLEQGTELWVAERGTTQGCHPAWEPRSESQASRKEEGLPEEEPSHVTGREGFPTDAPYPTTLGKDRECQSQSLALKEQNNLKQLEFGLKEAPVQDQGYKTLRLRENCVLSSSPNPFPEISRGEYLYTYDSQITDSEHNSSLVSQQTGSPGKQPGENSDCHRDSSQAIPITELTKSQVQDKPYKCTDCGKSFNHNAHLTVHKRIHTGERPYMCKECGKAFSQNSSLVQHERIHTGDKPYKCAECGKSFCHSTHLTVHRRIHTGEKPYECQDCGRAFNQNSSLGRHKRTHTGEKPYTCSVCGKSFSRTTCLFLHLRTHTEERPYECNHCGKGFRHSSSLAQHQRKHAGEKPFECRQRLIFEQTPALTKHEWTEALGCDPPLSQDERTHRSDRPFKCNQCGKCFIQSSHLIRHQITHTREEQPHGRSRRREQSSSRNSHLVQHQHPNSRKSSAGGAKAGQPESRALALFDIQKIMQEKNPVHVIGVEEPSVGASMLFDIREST

B1: TBRE1036 (antibody, V domains shown)
VH: QVQLVESGGGVVQPGRSLRLSCAASGFTFSSYAMHWVRQAPGKGLEWVAVISYDGSNKYYADSLKGRFTISRDNSKDTLYLQVNSLRPEDTAVYYCARVNIAAAGTLDYWGQGTLVTVSS
VL: EIVLTQSPGTLSLSPGERATLSCRASQSVSSRYLAWYQQKPGQAPRLLIHGASSRATGIPDRFSGSGSGTDFTLTISRLEPEDFAVYYCQQYGSAWTFGQGTKVEIKR
notes: detected with anti-human IgG Fc
binding result [1]: binds

B2: TBRE1039 (antibody, V domains shown)
VH: PVQLVQSGAEVKKPGSSVKVSCKASGGTFSSYAISWVRQAPGQGLEWMGGIIPIFGTANYAQKFQGRVTITADESTSTAYMELSSLRSEDTAVYYCARENWNSAGTTEWFDPWGQGTLVTVSS
VL: PYVLTQPPSVSVAPGKTARITCGGNNIGSKSVHWYQQKPGQAPVLVIYYDSDRPSGIPERFSGSNSGNTATLTISRVEAGDEADYYCQVWDSSSDHYVVFGGGTKLTVLG
notes: as for B1
binding result [2]: binds
binding result [3]: binds
binding result [4]: binds

B3: TBRE1017 (antibody, V domains shown)
VH: QVQLVQSGAEVKKPGASVKVSCKASGYNFRDYYMHWVRQAPGQGLEWMGWINPNSGGTISAQNFQGRVTMTRDTSISTAYMEVNSLRSDDTAVYYCAVGMVTDGFEIWGQGTLVTVSS
VL: PYELTQPPSVSVSPGQTARITCSGDALPNENAFWYQQKPGQAPVLVIYEDIKRPSGIPERFSGSSSGTTVTLTISGVQAEDEADYYCQSVDITSTWVFGGGTKLTVLG
notes: VH/VL only
binding result (zinc finger protein 8): binds
binding result [5]: binds
binding result [6]: binds

B4: TCER1002 (antibody, V domains shown)
VH: QVQLQESGPGLVKPSETLSLSCTVSGASMNNYYWSWIRQSAGKGLEWIGRIYSSGDTDYNPSLKTRVTMSIDTSKNQFSLNLDSVTAADTATYYCARSFYDTLFYFENWGQGTLVTVSS
VL: DIQMTQSPSTLSASVGDRVTITCRASQSISVWLAWYQQKPGKAPKLLIYKASTLEAGVPSRFSGSGSGTEFSLTISGLQPDDFGTYFCQHYDSYPWTFGQGTKVEMK
notes: as for B1
binding result [7]: binds

More lines, now with the values ahead:

binding result (LN608403.1_frag): binds
binding result [8]: binds
B5: TBRE1045 (antibody, V domains shown)
VH: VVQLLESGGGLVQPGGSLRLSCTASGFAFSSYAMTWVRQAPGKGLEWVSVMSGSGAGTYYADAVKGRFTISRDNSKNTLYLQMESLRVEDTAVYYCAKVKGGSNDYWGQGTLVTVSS
VL: PYVLTQPPSVSVAPGQTARITCGGNNIGSKSVHWYQQKPGQAPVMVVYADRERPSGIPERLSGSNFGNTATLTISRVEAGDEADYYCQVWDSNNDHREVFGGGTKLTVLG
notes: as for B1

binding result [9]: binds
B6: TCER1001 (antibody, V domains shown)
VH: EVQLVESGGGLVQPGRSLRLSCAASGFTFDDYAMHWVRQAPGKGLEWVSGISWNSGSIGYADSVKGRFTISRDNAKNSLYLQMNSLRAEDTALYYCAKDLLGFRDQRNYYGMDVWGQGTTVTVSS
VL: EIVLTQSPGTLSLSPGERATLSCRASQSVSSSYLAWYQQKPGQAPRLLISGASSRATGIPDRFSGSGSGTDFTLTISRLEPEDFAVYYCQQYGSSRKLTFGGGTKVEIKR
notes: as for B1
